Series [1] has as its target Strep-Tactin-SpyCatcherΔ subunit. The series is described as follows: refolding of mixed subunits, anion exchange chromatography, SDS-PAGE densitometry; subunits from washed inclusion bodies mixed at 3:1, refolded by rapid dilution, tetramers separated on Mono Q; boiled peak samples on reducing SDS-PAGE, bands normalised for molecular weight and converted to a subunit ratio. To be noted: both partners purified.

Series [2] deals with the molecule itself. The description is as above.

Sequence of Strep-Tactin-SpyCatcherΔ subunit (chain, as listed by the source mutant): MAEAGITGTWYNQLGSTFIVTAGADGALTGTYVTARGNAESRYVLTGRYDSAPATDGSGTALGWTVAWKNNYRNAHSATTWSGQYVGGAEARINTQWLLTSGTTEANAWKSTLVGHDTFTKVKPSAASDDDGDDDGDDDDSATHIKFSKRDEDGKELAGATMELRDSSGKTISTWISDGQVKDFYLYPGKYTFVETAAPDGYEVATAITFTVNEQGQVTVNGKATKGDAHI

B1: dead streptavidin subunit (other)
chain: MAEAGITGTWYAQLGDTFIVTAGADGALTGTYEAAVGNAESRYVLTGRYDSAPATDGSGTALGWTVAWKNNYRNAHSATTWSGQYVGGAEARINTQWLLTSGTTEANAWKSTLVGHDTFTKVKPSAAS
notes: also called dead streptavidin monomer
On to B1, for which the “stoichiometry N” value in series [1] was 3.7 dead streptavidin per Strep-Tactin-SpyCatcherΔ. Also, the binding result in series [2] is recorded as “binds”.

These data come from paper PMC6922461 (PLoS Biology, 2019).
